B3: BMP-6 subunit beginning with amino acid #375 (CHO-produced) (ligand)
chain: SASSRRRQQSRNRSTQSQDVARVSSASDYNSSELKTACRKHELYVSFQDLGWQDWIIAPKGYAANYCDGECSFPLNAHMNATNHAIVQTLVHLMNPEYVPKPCCAPTKLNAISVLYFDDNSNVILKKYRNMVVRACGCH
notes: Single subunit

Experiments:
[1] = target: the molecule itself; assay: refolding of E. coli monomer, SDS-PAGE with and without reduction
[2] = target: B3; assay: protein sequencing of purified CHO BMP-2/6 heterodimer subunits
Method: (§1) The BMP-2/6 heterodimer subunits are analyzed on a protein sequenator.

[3] = target: the molecule itself; assay: purification of BMP-2/6 from CHO 12C07 medium, gel analysis
Method: After the completion of sample loading, the column was washed with 10 bed volumes of the equilibration buffer. Bound BMP-2/7 or BMP-2/6 heterodimers were eluted with 5 bed volumes of 100 mM potassium phosphate, 6M urea, pH 7.4. This eluate was loaded directly onto a Vydac C_4 reverse-phase HPLC column equilibrated in water –0.1% TFA. BMP-2/7 or BMP-2/6 heterodimers were eluted with a gradient of 30-50% acetonitrile in water—0.1% trifluoroacetic acid.
Fractions containing BMPs are identified by SDS-PAGE in the presence or absence of reductant. The identity of the BMPs with respect to the heterodimers vs. homodimers is determined by 2D-PAGE (+/−reductant). Fractions with heterodimers gave bands which reduce to two spots. Bands from homodimer fractions reduce to a single spot for each BMP species.

[4] = target: T1, BMP-2 subunit beginning with amino acid #249 (CHO-produced) (human, UniProt P12643 249-396); assay: protein sequencing of purified CHO BMP-2/6 heterodimer subunits
T1 construct: Single subunit; also called BMP-2 subunit #249 Ser-Lev-His
T1 sequence: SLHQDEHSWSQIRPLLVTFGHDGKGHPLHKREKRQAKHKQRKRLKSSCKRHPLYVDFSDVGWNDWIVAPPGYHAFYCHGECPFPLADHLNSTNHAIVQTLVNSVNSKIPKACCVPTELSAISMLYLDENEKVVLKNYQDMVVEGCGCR
Method: as §1

B1: E. coli BMP-2 monomer (mature portion of BMP-2 from plasmid pALBP2-781) (ligand)
chain: MQAKHKQRKRLKSSCKRHPLYVDFSDVGWNDWIVAPPGYHAFYCHGECPFPLADHLNSTNHAIVQTLVNSVNSKIPKACCVPTELSAISMLYLDENEKVVLKNYQDMVVEGCGCR
- binding result [1]: binds

B2: BMP-2 subunit beginning with amino acid #283 (CHO-produced) (ligand)
chain: QAKHKQRKRLKSSCKRHPLYVDFSDVGWNDWIVAPPGYHAFYCHGECPFPLADHLNSTNHAIVQTLVNSVNSKIPKACCVPTELSAISMLYLDENEKVVLKNYQDMVVEGCGCR
notes: also called mature BMP-2 subunit
- binding result [2]: binds

Binder: B3
- binding result [3]: binds
- binding result [4]: binds
